This assay concerns the target gastric inhibitory polypeptide (GIP), species not stated. In words: modified Schild's assay plot, reporter cell line expressing GIP receptors.

Chain of gastric inhibitory polypeptide (GIP), species not stated (P09681 52-93): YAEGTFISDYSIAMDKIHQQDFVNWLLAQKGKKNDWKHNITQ

B1: 10g10 monoclonal antibody (original mouse mAb from hybridoma 10g10) (antibody, V domains shown)
VH: QVQLQESGAELVRSGASVKLSCTASGFNIRDYYLHWIKQRPEQGLEWIGWIDPENGDTEYAPKFQDKATVTADTSSNTAYLQLNSLTSEDTAVYYCNVYGIYFMDYWGQGTTVTVSS
VL: DIQLTQSPSTMAASPGEKITITCSASSSISSNSLHWYQQKPGFSPKLLIYRTSNLASGVPGRFSGSGSGTSYSLTIGTMETEDVATYYCQQGSSFPRMLTFGTGTKLEIKR
notes: Mouse antibody from a hybridoma; also called 10g10 mAb; 10g10 GIP mAb
One may read the Kd as the constant that tells how readily two partners part at equilibrium. As for B1, binding was put at a Kd of 3200 nM.

B2: LC2/HC2 humanized antibody (antibody, V domains shown)
VH: QVQLVQSGAEVKKPGATVKISCKASGFNIRDYYLHWVQQAPGKGLEWMGWIDPENGDTEYAPKFQGRVTITADTSTNTAYMELSSLRSEDTAVYYCNVYGIYFMDYWGQGTMVTVSS
VL: DIQLTQSPSSVSASVGDRVTITCRASSSISSNSLHWYQQKPGKAPKLLIYRTSNLQSGVPSRFSGSGSGTDYTLTISSLQPEDFATYYCQQGSSFPRMLTFGQGTKLEIKR
notes: CHO supernate in the ELISA; Protein A purified in the neutralization assay; also called mAbH; GIP mAbH
Molecule B2 showed a Kd of 2200 nM.

Values taken from WO2018102654A1 (dated 2018).
